B1: DotL(590–783)–DotN–IcmSW–LvgA with the (His)10-MBP tag on DotL(590–783) (complex)
chain 1: VEPPPDDYLMKLQKQLASFQSILESGDLSINKAVENEEITLISKALKESTIVEPIERGVAALIAFHGQNEPEPVEDIVEEEVEGALTIFSKLRIDPNAPPILVADKEVFSEPLLPINETRNQMITIERLAGAKDKYAGTVANELIKDFQIATSYPPEERDVIDVQELTGIIRDLSAKISAEREKANKKAAEELT
chain 2: MADNQQRCELKLIASPGSWRLYSARKIDERFKSYEQKIFQRDRYTCQFCGFQARLYQDIVNLDGDYTNNRLSNLVTACCFCAQCFFVESVGVGGYGGGTLIYLPELTQAELNSLCHVLFCAITNDTGYKSSAQNIYRSFKFRSQIVEEKFGEGTSDPAIFGQLMIDSGVNSEEIREKLFKNIRLLPSRAKFRKQIEKWAASALEEIAD
chain 3: MERDISKCMAKIAASMNAKFYLNDRFVSFDEVFSETGLLPAIAKRADQLCSLCLGYGLGATYDESEGALLGIRVVFDEVTPNVLRLLCMTDVMNELIQGGPSRDYTPLDELMYD
chain 4: MPDLSHEASAKYWFEYLDPMIYRVITFMESVENWTLDGNPELEEAMKQLGQELDDIEKIDLGLLAEEDKFIRIVGNIKSGRGLRLLQAIDTVHPGSASRVLIHAEETSLSSSDPAGFFLKRNIVFERLRLLSRVFCQYRLKLVLRALEGDE
chain 5: MADGDIEIKAGFVDTDLDDRKLTMIDDLNNPLAIVERVYLIWWHWADFHLHVISPHIDTITPAIVIEPELIPGSNDHEFVYSIHDSGSKLSTSKSQDMFSAGMSMCKLFYTIEKMVYILVERLKSGGVSMEAEVQIAFAGHEIAQRKAFESIINLPYNVVVTNFDPGIWGEKYLQNVKRLADKGYGYPPESPRKIYMHPVSSGTTARK
B2: SetA (natural protein)
chain: MYKIYSYLGWRIDMKTENLPQAGQEAQIDKKIHFIWVGHIMPQKNIQVVSEWAEKNPGYETIIWVDKKIAPAKELDLFILDMKSKGITVKDINEEGVCRDSIRHELDQESPNYGMVSDMLRLNILAAEGGIYLDSDILCSAPFPDEIYAPFGFLLSPWSQGANNTLCNDIILCSKGNQIIQQLADAIEQSYIARDSFEFTHEYASMKETKGERIAKTLGVTGPGFLFHQLKKMGILNDKSEMEAIHWELQDQRYLIDGSVKEPDYFYVPQNNTNDASWVPSIKRPGIENMSFQERLENAVQLIAFDIQKTGLFNLDHYANELKVKQNSWCIAAETSPELKPDSYLLIRPRDKTGEWTLYYVDEDKKLNPVTLPVIKGAIKLSEVSDPLRKFHTLLSQVSDPVNPTAHELKQIGRALIELKPRQDEWHCKNKWSGAEEIAQELWQRITSNETLRAQIKQCFTQFESLKPRVAELGLTRASGAGTEVEAHESTVKEQEIISQNTVGEEGTKEKNSVQLASENSSDEKIKTAHDLIDEIIQDVIQLDGKLGLLGGNTRQLEDGRVINIPNGAAMIFDDYKKYKQGELTAESALESMIKIAKLSNQLNRHTFFNQRQPETGQFYKKVAAIDLQTTIAAEYDNNHGLRI

Experiments:
VpdB = VpdB (L. pneumophila, UniProt Q5ZW60 1-598); experiment: BLI
[1] = target: B1; experiment: BLI

Row | Binder | Kd (VpdB) [nM] | koff (VpdB) [s⁻¹] | kon (VpdB) [M⁻¹ s⁻¹] | Kd [1] [nM] | koff [1] [s⁻¹] | kon [1] [M⁻¹ s⁻¹]
1 | B1 | ~332 | 0.0039 | 11800 |  |  | 
2 | B2 |  |  |  | 1600 | 0.0203 | 13100

Source: article PMC6497169 (Nature microbiology, 2017)
